*1 amine or outer side, *2 acyl side, *3 side chain or, on linkers, in order; H or OH if unused. Side-chain parts run from the residue outwards. The star is where a group is joined. C20 diacid = O=C(O)CCCCCCCCCCCCCCCCCCC(=O)*; C18 diacid = O=C(O)CCCCCCCCCCCCCCCCC(=O)*; C16 diacid = O=C(O)CCCCCCCCCCCCCCC(=O)*; γGlu = O=C(O)[C@H](CCC(=O)[*:2])N[*:1]

B1: N^1-[(4S)-4-carboxy-4-[[(4S)-4-carboxy-4-(17-carboxyheptadecanoylamino)butanoyl]amino]butanoyl]-[Ala1,Ser2,His3,Leu4,Ser5,Ala7,Gln8,Ala10,Glu14,His17,Pro25,Pro2 … (peptide)
peptide: {C18 diacid-γGlu-γGlu}-ASHLSTAQTARLAEFLHHFGPILPPTDVGSETP-NH2
SMILES: CC[C@H](C)[C@H](NC(=O)[C@@H]1CCCN1C(=O)CNC(=O)[C@H](Cc1ccccc1)NC(=O)[C@H](Cc1c[nH]cn1)NC(=O)[C@H](Cc1c[nH]cn1)NC(=O)[C@H](CC(C)C)NC(=O)[C@H](Cc1ccccc1)NC(=O)[C@H](CCC(=O)O)NC(=O)[C@H](C)NC(=O)[C@H](CC(C)C)NC(=O)[C@H](CCCNC(=N)N)NC(=O)[C@H](C)NC(=O)[C@@H](NC(=O)[C@H](CCC(N)=O)NC(=O)[C@H](C)NC(=O)[C@@H](NC(=O)[C@H](CO)NC(=O)[C@H](CC(C)C)NC(=O)[C@H](Cc1c[nH]cn1)NC(=O)[C@H](CO)NC(=O)[C@H](C)NC(=O)CC[C@H](NC(=O)CC[C@H](NC(=O)CCCCCCCCCCCCCCCCC(=O)O)C(=O)O)C(=O)O)[C@@H](C)O)[C@@H](C)O)C(=O)N[C@@H](CC(C)C)C(=O)N1CCC[C@H]1C(=O)N1CCC[C@H]1C(=O)N[C@H](C(=O)N[C@@H](CC(=O)O)C(=O)N[C@H](C(=O)NCC(=O)N[C@@H](CO)C(=O)N[C@@H](CCC(=O)O)C(=O)N[C@H](C(=O)N1CCC[C@H]1C(N)=O)[C@@H](C)O)C(C)C)[C@@H](C)O
B2: N^1-acetyl,N{Epsilon-25}-[(4S)-4-carboxy-4-(17-carboxyheptadecanoylamino)butanoyl]-[Ala1,Ser2,Gln3,Leu4,Ser5,Ala7,Gln8,Glu14, His17,Asp21,Lys25, Pro28, … (peptide)
peptide: Ac-ASQLSTAQTQRLAEFLHHSSDNFGK([γGlu-C18 diacid])ILPPTDVGSNTP-NH2
SMILES: CC[C@H](C)[C@H](NC(=O)[C@H](CCCCNC(=O)CC[C@H](NC(=O)CCCCCCCCCCCCCCCCC(=O)O)C(=O)O)NC(=O)CNC(=O)[C@H](Cc1ccccc1)NC(=O)[C@H](CC(N)=O)NC(=O)[C@H](CC(=O)O)NC(=O)[C@H](CO)NC(=O)[C@H](CO)NC(=O)[C@H](Cc1c[nH]cn1)NC(=O)[C@H](Cc1c[nH]cn1)NC(=O)[C@H](CC(C)C)NC(=O)[C@H](Cc1ccccc1)NC(=O)[C@H](CCC(=O)O)NC(=O)[C@H](C)NC(=O)[C@H](CC(C)C)NC(=O)[C@H](CCCNC(=N)N)NC(=O)[C@H](CCC(N)=O)NC(=O)[C@@H](NC(=O)[C@H](CCC(N)=O)NC(=O)[C@H](C)NC(=O)[C@@H](NC(=O)[C@H](CO)NC(=O)[C@H](CC(C)C)NC(=O)[C@H](CCC(N)=O)NC(=O)[C@H](CO)NC(=O)[C@H](C)NC(C)=O)[C@@H](C)O)[C@@H](C)O)C(=O)N[C@@H](CC(C)C)C(=O)N1CCC[C@H]1C(=O)N1CCC[C@H]1C(=O)N[C@H](C(=O)N[C@@H](CC(=O)O)C(=O)N[C@H](C(=O)NCC(=O)N[C@@H](CO)C(=O)N[C@@H](CC(N)=O)C(=O)N[C@H](C(=O)N1CCC[C@H]1C(N)=O)[C@@H](C)O)C(C)C)[C@@H](C)O
B3: N^1-acetyl,N{Epsilon-25}-[(4S)-4-carboxy-4-(17-carboxyheptadecanoylamino)butanoyl]-[Ala1,Ser2,Gln3,Leu4,Ser5,Ala7,Gln8,Glu14,His17,Asp21, Pro22,Lys25, … (peptide)
peptide: Ac-ASQLSTAQTQRLAEFLHHSSDPFGK([γGlu-C18 diacid])IPSSTDVGPDTP-NH2
SMILES: CC[C@H](C)[C@H](NC(=O)[C@H](CCCCNC(=O)CC[C@H](NC(=O)CCCCCCCCCCCCCCCCC(=O)O)C(=O)O)NC(=O)CNC(=O)[C@H](Cc1ccccc1)NC(=O)[C@@H]1CCCN1C(=O)[C@H](CC(=O)O)NC(=O)[C@H](CO)NC(=O)[C@H](CO)NC(=O)[C@H](Cc1c[nH]cn1)NC(=O)[C@H](Cc1c[nH]cn1)NC(=O)[C@H](CC(C)C)NC(=O)[C@H](Cc1ccccc1)NC(=O)[C@H](CCC(=O)O)NC(=O)[C@H](C)NC(=O)[C@H](CC(C)C)NC(=O)[C@H](CCCNC(=N)N)NC(=O)[C@H](CCC(N)=O)NC(=O)[C@@H](NC(=O)[C@H](CCC(N)=O)NC(=O)[C@H](C)NC(=O)[C@@H](NC(=O)[C@H](CO)NC(=O)[C@H](CC(C)C)NC(=O)[C@H](CCC(N)=O)NC(=O)[C@H](CO)NC(=O)[C@H](C)NC(C)=O)[C@@H](C)O)[C@@H](C)O)C(=O)N1CCC[C@H]1C(=O)N[C@@H](CO)C(=O)N[C@@H](CO)C(=O)N[C@H](C(=O)N[C@@H](CC(=O)O)C(=O)N[C@H](C(=O)NCC(=O)N1CCC[C@H]1C(=O)N[C@@H](CC(=O)O)C(=O)N[C@H](C(=O)N1CCC[C@H]1C(N)=O)[C@@H](C)O)C(C)C)[C@@H](C)O
B4: N^1-[(4S)-4-carboxy-4-(19-carboxynonadecanoylamino)butanoyl]-[Ala1,Ser2,His3,Leu4,Ser5,Ala7,Gln8,Glu14,His17,Asp21,Pro25,Pro28,Pro29,Asp31,Pro37]-human amylin (peptide)
peptide: {C20 diacid-γGlu}-ASHLSTAQTQRLAEFLHHSSDNFGPILPPTDVGSNTP-NH2
SMILES: CC[C@H](C)[C@H](NC(=O)[C@@H]1CCCN1C(=O)CNC(=O)[C@H](Cc1ccccc1)NC(=O)[C@H](CC(N)=O)NC(=O)[C@H](CC(=O)O)NC(=O)[C@H](CO)NC(=O)[C@H](CO)NC(=O)[C@H](Cc1c[nH]cn1)NC(=O)[C@H](Cc1c[nH]cn1)NC(=O)[C@H](CC(C)C)NC(=O)[C@H](Cc1ccccc1)NC(=O)[C@H](CCC(=O)O)NC(=O)[C@H](C)NC(=O)[C@H](CC(C)C)NC(=O)[C@H](CCCNC(=N)N)NC(=O)[C@H](CCC(N)=O)NC(=O)[C@@H](NC(=O)[C@H](CCC(N)=O)NC(=O)[C@H](C)NC(=O)[C@@H](NC(=O)[C@H](CO)NC(=O)[C@H](CC(C)C)NC(=O)[C@H](Cc1c[nH]cn1)NC(=O)[C@H](CO)NC(=O)[C@H](C)NC(=O)CC[C@H](NC(=O)CCCCCCCCCCCCCCCCCCC(=O)O)C(=O)O)[C@@H](C)O)[C@@H](C)O)C(=O)N[C@@H](CC(C)C)C(=O)N1CCC[C@H]1C(=O)N1CCC[C@H]1C(=O)N[C@H](C(=O)N[C@@H](CC(=O)O)C(=O)N[C@H](C(=O)NCC(=O)N[C@@H](CO)C(=O)N[C@@H](CC(N)=O)C(=O)N[C@H](C(=O)N1CCC[C@H]1C(N)=O)[C@@H](C)O)C(C)C)[C@@H](C)O
B5: N^1-[(4S)-4-carboxy-4-(15-carboxypentadecanoylamino)butanoyl]-[Ala1,Ser2,His3,Leu4,Ser5,Ala7,Gln8,Ala10,Glu14,His17,Asp21,Pro25,Pro28,Pro29,Asp31,Pro37]-human … (peptide)
peptide: {C16 diacid-γGlu}-ASHLSTAQTARLAEFLHHSSDNFGPILPPTDVGSNTP-NH2
SMILES: CC[C@H](C)[C@H](NC(=O)[C@@H]1CCCN1C(=O)CNC(=O)[C@H](Cc1ccccc1)NC(=O)[C@H](CC(N)=O)NC(=O)[C@H](CC(=O)O)NC(=O)[C@H](CO)NC(=O)[C@H](CO)NC(=O)[C@H](Cc1c[nH]cn1)NC(=O)[C@H](Cc1c[nH]cn1)NC(=O)[C@H](CC(C)C)NC(=O)[C@H](Cc1ccccc1)NC(=O)[C@H](CCC(=O)O)NC(=O)[C@H](C)NC(=O)[C@H](CC(C)C)NC(=O)[C@H](CCCNC(=N)N)NC(=O)[C@H](C)NC(=O)[C@@H](NC(=O)[C@H](CCC(N)=O)NC(=O)[C@H](C)NC(=O)[C@@H](NC(=O)[C@H](CO)NC(=O)[C@H](CC(C)C)NC(=O)[C@H](Cc1c[nH]cn1)NC(=O)[C@H](CO)NC(=O)[C@H](C)NC(=O)CC[C@H](NC(=O)CCCCCCCCCCCCCCC(=O)O)C(=O)O)[C@@H](C)O)[C@@H](C)O)C(=O)N[C@@H](CC(C)C)C(=O)N1CCC[C@H]1C(=O)N1CCC[C@H]1C(=O)N[C@H](C(=O)N[C@@H](CC(=O)O)C(=O)N[C@H](C(=O)NCC(=O)N[C@@H](CO)C(=O)N[C@@H](CC(N)=O)C(=O)N[C@H](C(=O)N1CCC[C@H]1C(N)=O)[C@@H](C)O)C(C)C)[C@@H](C)O
B6: N^1-[(4S)-4-carboxy-4-(17-carboxyheptadecanoylamino)butanoyl]-[Ala1,Gly2,Glu3,Leu4,Ser5,Ala7,Gln8,Ala10,Glu14,His17,Pro25,Pro28,Pro29,Asp31,Glu35,Pro37],des-(19 … (peptide)
peptide: {C18 diacid-γGlu}-AGELSTAQTARLAEFLHHFGPILPPTDVGSETP-NH2
SMILES: CC[C@H](C)[C@H](NC(=O)[C@@H]1CCCN1C(=O)CNC(=O)[C@H](Cc1ccccc1)NC(=O)[C@H](Cc1c[nH]cn1)NC(=O)[C@H](Cc1c[nH]cn1)NC(=O)[C@H](CC(C)C)NC(=O)[C@H](Cc1ccccc1)NC(=O)[C@H](CCC(=O)O)NC(=O)[C@H](C)NC(=O)[C@H](CC(C)C)NC(=O)[C@H](CCCNC(=N)N)NC(=O)[C@H](C)NC(=O)[C@@H](NC(=O)[C@H](CCC(N)=O)NC(=O)[C@H](C)NC(=O)[C@@H](NC(=O)[C@H](CO)NC(=O)[C@H](CC(C)C)NC(=O)[C@H](CCC(=O)O)NC(=O)CNC(=O)[C@H](C)NC(=O)CC[C@H](NC(=O)CCCCCCCCCCCCCCCCC(=O)O)C(=O)O)[C@@H](C)O)[C@@H](C)O)C(=O)N[C@@H](CC(C)C)C(=O)N1CCC[C@H]1C(=O)N1CCC[C@H]1C(=O)N[C@H](C(=O)N[C@@H](CC(=O)O)C(=O)N[C@H](C(=O)NCC(=O)N[C@@H](CO)C(=O)N[C@@H](CCC(=O)O)C(=O)N[C@H](C(=O)N1CCC[C@H]1C(N)=O)[C@@H](C)O)C(C)C)[C@@H](C)O

In the first assay the target is T1, human amylin-3(a) receptor (human, UniProt P30988 25-474; O60896 24-148).
T1 sequence (looked up) 1: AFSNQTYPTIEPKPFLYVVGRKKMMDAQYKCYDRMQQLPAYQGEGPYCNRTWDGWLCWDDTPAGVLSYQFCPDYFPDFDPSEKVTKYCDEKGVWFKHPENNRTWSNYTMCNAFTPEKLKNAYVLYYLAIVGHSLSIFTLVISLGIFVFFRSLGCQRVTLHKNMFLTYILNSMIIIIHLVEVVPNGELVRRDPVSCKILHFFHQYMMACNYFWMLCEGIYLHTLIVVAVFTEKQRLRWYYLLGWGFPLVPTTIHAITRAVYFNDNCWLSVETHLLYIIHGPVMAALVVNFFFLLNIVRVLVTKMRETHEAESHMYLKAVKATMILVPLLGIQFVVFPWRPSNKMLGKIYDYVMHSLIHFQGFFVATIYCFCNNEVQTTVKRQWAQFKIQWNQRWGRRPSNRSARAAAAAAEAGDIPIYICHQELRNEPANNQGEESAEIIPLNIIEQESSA
T1 sequence (looked up) 2: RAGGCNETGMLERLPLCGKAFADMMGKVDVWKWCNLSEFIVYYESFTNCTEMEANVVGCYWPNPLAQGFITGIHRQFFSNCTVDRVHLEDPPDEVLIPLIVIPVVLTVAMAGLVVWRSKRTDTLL
Put plainly: cell-based or functional assay.
Take B1: the “hAmyR3 potency, EC50 (pM); CRE-luciferase reporter in BHK cells” value (“hAmyR3 potency, EC50 (pM)” below) was determined as 1.11 pM.
The same measure, in the same setting: then B2, with 1.38 pM.
Take B3: the “hAmyR3 potency, EC50 (pM)” value turned out to be 1.5 pM.
For the molecule B4, the “hAmyR3 potency, EC50 (pM)” value was 0.9 pM.
B5: the “hAmyR3 potency, EC50 (pM)” value was 1.62 pM.
On the same count and under the same terms, then B6, with 1.25 pM.

The next assay has as its target T2, human calcitonin receptor (a) (human, UniProt P30988 25-474).
T2 sequence (looked up): T1 sequence (looked up) 1
Description: cell-based or functional assay.
As to B1, the “hCalcR potency, EC50 (pM); CRE-luciferase reporter in BHK cells” value was 1.15 pM.
The same measure, in the same setting: then B2, with 1.19 pM; and B3, with 1 pM.
As for B4, the “hCalcR potency, EC50 (pM); CRE-luciferase reporter in BHK cells” value was 1.3 pM.
On the same count and under the same terms, then B5, with 1.5 pM; and B6, with 1.03 pM.

These data come from patent US20260209293A1 (Novo Nordisk, published 2026).
